In FireProtDB (doi:10.1021/bi962939w):

B1: Interleukin-6, P08505 (parent)
chain: MKFLSARDFHPVAFLGLMLVTTTAFPTSQVRRGDFTEDTTPNRPVYTTSQVGGLITHVLWEIVEMRKELCNGNSDCMNNDDALAENNLKLPEIQRNDGCYQTGYNQEICLLKISSGLLEYHSYLEYMKNNLKDNKKDKARVLQRDTETLIHIFNQEVKDLHKIVLPTPISNALLTDKLESQKEWLRTKTIQFILKSLEEFLKVTLRSTRQT

Variants of: B1
Settings: Mus musculus, 25 °C, CD, structure 2L3Y, whole UniProt chain shown
[1] = pH 4, Urea, Sodium acetate 10 mM

Row | Variant | ddG of mutation (higher = less stable) [1] | denaturant m value [1] | denaturant midpoint (higher = more stable) [1] | unfolding free energy [1] | ddG of mutation (higher = less stable) (pH 7.4, GdnHCl, Tris-HCl 10 mM) | denaturant m value (pH 7.4, GdnHCl, Tris-HCl 10 mM) | denaturant midpoint (higher = more stable) (pH 7.4, GdnHCl, Tris-HCl 10 mM) | unfolding free energy (pH 7.4, GdnHCl, Tris-HCl 10 mM) | ddG of mutation (higher = less stable) (pH 7.4, Urea, Tris-HCl 10 mM) | denaturant m value (pH 7.4, Urea, Tris-HCl 10 mM) | denaturant midpoint (higher = more stable) (pH 7.4, Urea, Tris-HCl 10 mM) | unfolding free energy (pH 7.4, Urea, Tris-HCl 10 mM)
1 | MKFLSARDFHPVAFLGLMLVTTTAFPTSQVRRGDFTEDTTPNRPVYTTSQVGGLITAVLAEIVEMRKELCNGNSDCMNNDDALAENNLKLPEIQRNDGCYQTGYNQEICLLKISSGLLEYHSYLEYMKNNLKDNKKDKARVLQRDTETLIHIFNQEVKDLHKIVLPTPISNALLTDKLESQKEWLRTKTIQFILKSLEEFLKVTLRSTRQT [H57A W60A] | 9.2 kJ/mol | 2.3 kcal/mol/M | 3.8 M | 36 kJ/mol | -17.2 kJ/mol | 3 kcal/mol/M | 2 M | 25.1 kJ/mol | -7.53 kJ/mol | 1.5 kcal/mol/M | 4.9 M | 31.4 kJ/mol
2 | MKFLSARDFHPVAFLGLMLVTTTAFPTSQVRRGDFTEDTTPNRPVYTTSQVGGLITHVLAEIVEMRKELCNGNSDCMNNDDALAENNLKLPEIQRNDGCYQTGYNQEICLLKISSGLLEYHSYLEYMKNNLKDNKKDKARVLQRDTETLIHIFNQEVKDLHKIVLPTPISNALLTDKLESQKEWLRTKTIQFILKSLEEFLKVTLRSTRQT [W60A] | 8.37 kJ/mol | 2.5 kcal/mol/M | 3.5 M | 36.8 kJ/mol | -13 kJ/mol | 2.5 kcal/mol/M | 4.6 M | 20.9 kJ/mol | 7.11 kJ/mol | 1 kcal/mol/M | 4.6 M | 16.7 kJ/mol
3 | MKFLSARDFHPVAFLGLMLVTTTAFPTSQVRRGDFTEDTTPNRPVYTTSQVGGLITAVLWEIVEMRKELCNGNSDCMNNDDALAENNLKLPEIQRNDGCYQTGYNQEICLLKISSGLLEYHSYLEYMKNNLKDNKKDKARVLQRDTETLIHIFNQEVKDLHKIVLPTPISNALLTDKLESQKEWLRTKTIQFILKSLEEFLKVTLRSTRQT [H57A] | 16.3 kJ/mol | 1.9 kcal/mol/M | 3.58 M | 28.9 kJ/mol | 1.26 kJ/mol | 0.8 kcal/mol/M | 2 M | 6.69 kJ/mol |  |  |  | 
